Assay results as given in US20230357348A1 (AstraZeneca / MedImmune, published 2023).
Starred links: 1 amine or outer side, 2 acyl side, 3 side chain; linkers in the order of their positions; H or OH if unused. Non-standard residues stand in square brackets, D forms with d. Groups on a side chain read outwards from the residue. Primed or numbered codes have the meaning given here. No end group written: not given here. *: point of attachment. PEG12 = NCCOCCOCCOCCOCCOCCOCCOCCOCCOCCOCCOCCOCCC(=O)O; (PEG)2″ = polyethylene glycol 2 linker unit; C18 diacid = O=C(O)CCCCCCCCCCCCCCCCC(=O)*; Dip = N[C@H](C(=O)O)C(c1ccccc1)c1ccccc1; Heptadecanoyl = CCCCCCCCCCCCCCCCC(=O)*; γGlu = O=C(O)[C@H](CCC(=O)[*:2])N[*:1]; Stearoyl = CCCCCCCCCCCCCCCCCC(=O)*; Palmitoyl = CCCCCCCCCCCCCCCC(=O)*; αMeF = C[C@](N)(Cc1ccccc1)C(=O)O; (PEG)2 = polyethylene glycol 2; PEG2′ = polyethylene glycol 2; PEG4 = NCCOCCOCCOCCOCCC(=O)O; Dodecyl = CCCCCCCCCCCC*; AEEA = NCCOCCOCC(=O)O; Aib = CC(C)(N)C(=O)O

B1: Peptide 58 (peptide)
peptide: HSQGS[αMeF]TSDVSK[Dip]LDSK([PEG12-γGlu-γGlu-Stearoyl])AAQD[αMeF]VE[Aib]IINT-NH2
modifications: N-terminus assumed
SMILES: CCCCCCCCCCCCCCCCCC(=O)N[C@@H](CCC(=O)N[C@@H](CCC(=O)NCCOCCOCCOCCOCCOCCOCCOCCOCCOCCOCCOCCOCCC(=O)NCCCC[C@H](NC(=O)[C@H](CO)NC(=O)[C@H](CC(=O)O)NC(=O)[C@H](CC(C)C)NC(=O)[C@@H](NC(=O)[C@H](CCCCN)NC(=O)[C@H](CO)NC(=O)[C@@H](NC(=O)[C@H](CC(=O)O)NC(=O)[C@H](CO)NC(=O)[C@@H](NC(=O)[C@](C)(Cc1ccccc1)NC(=O)[C@H](CO)NC(=O)CNC(=O)[C@H](CCC(N)=O)NC(=O)[C@H](CO)NC(=O)[C@@H](N)Cc1c[nH]cn1)[C@@H](C)O)C(C)C)C(c1ccccc1)c1ccccc1)C(=O)N[C@@H](C)C(=O)N[C@@H](C)C(=O)N[C@@H](CCC(N)=O)C(=O)N[C@@H](CC(=O)O)C(=O)N[C@@](C)(Cc1ccccc1)C(=O)N[C@H](C(=O)N[C@@H](CCC(=O)O)C(=O)NC(C)(C)C(=O)N[C@H](C(=O)N[C@H](C(=O)N[C@@H](CC(N)=O)C(=O)N[C@H](C(N)=O)[C@@H](C)O)[C@@H](C)CC)[C@@H](C)CC)C(C)C)C(=O)O)C(=O)O
B2: Peptide 59 (peptide)
peptide: HSQGS[αMeF]TSDVSK[Dip]LDSK([γGlu-γGlu-(PEG)2-(PEG)2-Stearoyl])AAQD[αMeF]VE[Aib]IINT-NH2
B3: Peptide 60 (peptide)
peptide: HSQGS[αMeF]TSDVSK[Dip]LDSK([γGlu-(PEG)2-γGlu-(PEG)2-Stearoyl])AAQD[αMeF]VE[Aib]IINT-NH2
B4: Peptide 61 (peptide)
peptide: HSQGS[αMeF]TSDVSK[Dip]LDSK([(PEG)2-γGlu-(PEG)2-γGlu-Stearoyl])AAQD[αMeF]VE[Aib]IINT-NH2
B5: Peptide 62 (peptide)
peptide: HSQGS[αMeF]TSDVSK[Dip]LDSK([(PEG)2-(PEG)2-γGlu-γGlu-Dodecyl])AAQD[αMeF]VE[Aib]IINT-NH2
B6: Peptide 63 (peptide)
peptide: HSQGS[αMeF]TSDVSK[Dip]LDSK([(PEG)2-(PEG)2-γGlu-γGlu-Myristyl])AAQD[αMeF]VE[Aib]IINT-NH2
B7: Peptide 64 (peptide)
peptide: HSQGS[αMeF]TSDVSK[Dip]LDSK([(PEG)2-(PEG)2-γGlu-γGlu-Palmitoyl])AAQD[αMeF]VE[Aib]IINT-NH2
B8: Peptide 65 (peptide)
peptide: HSQGS[αMeF]TSDVSK[Dip]LDSKAAQD[αMeF]VE[Aib]IINT-NH2
modifications: not fully specified (residue 17)
B9: Peptide 67 (peptide)
peptide: H[Aib]QGS[αMeF]TSDVSK[Dip]LDSK([(PEG)2-(PEG)2-γGlu-Palmitoyl])AAQD[αMeF]VQ[Aib]IAN-NH2
B10: Peptide 72 (peptide)
peptide: H[Aib]QGS[αMeF]TSDVSK[αMeF]LDSK([PEG4-γGlu-γGlu-Palmitoyl])AAQD[αMeF]VE[Aib]LEAGG-NH2
modifications: N-terminus assumed
SMILES: CCCCCCCCCCCCCCCC(=O)N[C@@H](CCC(=O)N[C@@H](CCC(=O)NCCOCCOCCOCCOCCC(=O)NCCCC[C@H](NC(=O)[C@H](CO)NC(=O)[C@H](CC(=O)O)NC(=O)[C@H](CC(C)C)NC(=O)[C@](C)(Cc1ccccc1)NC(=O)[C@H](CCCCN)NC(=O)[C@H](CO)NC(=O)[C@@H](NC(=O)[C@H](CC(=O)O)NC(=O)[C@H](CO)NC(=O)[C@@H](NC(=O)[C@](C)(Cc1ccccc1)NC(=O)[C@H](CO)NC(=O)CNC(=O)[C@H](CCC(N)=O)NC(=O)C(C)(C)NC(=O)[C@@H](N)Cc1c[nH]cn1)[C@@H](C)O)C(C)C)C(=O)N[C@@H](C)C(=O)N[C@@H](C)C(=O)N[C@@H](CCC(N)=O)C(=O)N[C@@H](CC(=O)O)C(=O)N[C@@](C)(Cc1ccccc1)C(=O)N[C@H](C(=O)N[C@@H](CCC(=O)O)C(=O)NC(C)(C)C(=O)N[C@@H](CC(C)C)C(=O)N[C@@H](CCC(=O)O)C(=O)N[C@@H](C)C(=O)NCC(=O)NCC(N)=O)C(C)C)C(=O)O)C(=O)O
B11: Peptide 79 (peptide)
peptide: HSQGS[αMeF]TSDVSK[αMeF]LDSK([(PEG)2-(PEG)2-γGlu-γGlu-Palmitoyl])AAQD[αMeF]VQ[Aib]LEAGG-NH2
B12: Peptide 80 (peptide)
peptide: HSQGS[αMeF]TSDVSK[αMeF]LDSKAAQD[αMeF]VQ[Aib]LEAGG-NH2
modifications: not fully specified (residue 17)
B13: Peptide 87 (peptide)
peptide: HSQGS[αMeF]TSDVSK[αMeF]LDSK([(PEG)2-(PEG)2-γGlu-γGlu-Palmitoyl])AAQD[αMeF]VQ[Aib]IAN-NH2
B14: Peptide 88 (peptide)
peptide: HSQGS[αMeF]TSDVSK[αMeF]LDSK([(PEG)2-(PEG)2-γGlu-γGlu-Heptadecanoyl])AAQD[αMeF]VQ[Aib]IAN-NH2
B15: Peptide 11 (peptide)
peptide: H[Aib]HGS[αMeF]TSDVSK[αMeF]LDSK([AEEA-AEEA-γGlu-C18 diacid])AAQDFVQ[Aib]IANT-NH2
B16: Peptide 100 (peptide)
peptide: HSQGS[αMeF]TSDVSK[Aib]LDSK([(PEG)2″-(PEG)2″-γGlu-γGlu-Stearyl])AAQD[αMeF]VQ[Aib]IAN-NH2
B17: Peptide 12 (peptide)
peptide: H[Aib]HGS[αMeF]TSDVSK[αMeF]LDSK([AEEA-AEEA-γGlu-C18 diacid])AARDFVQ[Aib]IANT-NH2
modifications: N-terminus assumed
SMILES: CC[C@H](C)[C@H](NC(=O)C(C)(C)NC(=O)[C@H](CCC(N)=O)NC(=O)[C@@H](NC(=O)[C@H](Cc1ccccc1)NC(=O)[C@H](CC(=O)O)NC(=O)[C@H](CCCNC(=N)N)NC(=O)[C@H](C)NC(=O)[C@H](C)NC(=O)[C@H](CCCCNC(=O)COCCOCCNC(=O)COCCOCCNC(=O)CC[C@H](NC(=O)CCCCCCCCCCCCCCCCC(=O)O)C(=O)O)NC(=O)[C@H](CO)NC(=O)[C@H](CC(=O)O)NC(=O)[C@H](CC(C)C)NC(=O)[C@](C)(Cc1ccccc1)NC(=O)[C@H](CCCCN)NC(=O)[C@H](CO)NC(=O)[C@@H](NC(=O)[C@H](CC(=O)O)NC(=O)[C@H](CO)NC(=O)[C@@H](NC(=O)[C@](C)(Cc1ccccc1)NC(=O)[C@H](CO)NC(=O)CNC(=O)[C@H](Cc1c[nH]cn1)NC(=O)C(C)(C)NC(=O)[C@@H](N)Cc1c[nH]cn1)[C@@H](C)O)C(C)C)C(C)C)C(=O)N[C@@H](C)C(=O)N[C@@H](CC(N)=O)C(=O)N[C@H](C(N)=O)[C@@H](C)O
B18: Peptide 109 (peptide)
peptide: HSQGS[αMeF]TSDVSK(Ac)[Aib]LDSK([AEEA-AEEA-γGlu-C18 diacid])AAQD[αMeF]VQ[Aib]IAN-NH2
modifications: N-terminus assumed
SMILES: CC[C@H](C)[C@H](NC(=O)C(C)(C)NC(=O)[C@H](CCC(N)=O)NC(=O)[C@@H](NC(=O)[C@](C)(Cc1ccccc1)NC(=O)[C@H](CC(=O)O)NC(=O)[C@H](CCC(N)=O)NC(=O)[C@H](C)NC(=O)[C@H](C)NC(=O)[C@H](CCCCNC(=O)COCCOCCNC(=O)COCCOCCNC(=O)CC[C@H](NC(=O)CCCCCCCCCCCCCCCCC(=O)O)C(=O)O)NC(=O)[C@H](CO)NC(=O)[C@H](CC(=O)O)NC(=O)[C@H](CC(C)C)NC(=O)C(C)(C)NC(=O)[C@H](CCCCNC(C)=O)NC(=O)[C@H](CO)NC(=O)[C@@H](NC(=O)[C@H](CC(=O)O)NC(=O)[C@H](CO)NC(=O)[C@@H](NC(=O)[C@](C)(Cc1ccccc1)NC(=O)[C@H](CO)NC(=O)CNC(=O)[C@H](CCC(N)=O)NC(=O)[C@H](CO)NC(=O)[C@@H](N)Cc1c[nH]cn1)[C@@H](C)O)C(C)C)C(C)C)C(=O)N[C@@H](C)C(=O)N[C@@H](CC(N)=O)C(N)=O
B19: Peptide 110 (peptide)
peptide: HSQGS[αMeF]TSDVSK(Ac)[Aib]LDSK([PEG2′-PEG2′-γGlu-γGlu-Stearyl])AAQD[αMeF]VQ[Aib]IAN-NH2
B20: Peptide 111 (peptide)
peptide: HSQGS[αMeF]TSDVSKILDSKAAQD[αMeF]VQ[Aib]IAN-NH2
modifications: not fully specified (residue 17)

Key:
[1] = target: human GLP-1 receptor (hGLP-1R) (human, UniProt P43220 24-463); assay: cell-based or functional assay
[2] = target: human glucagon receptor (hGCGR) (human, UniProt P47871 26-477); assay: cell-based or functional assay
Sequence of human glucagon receptor (hGCGR) (P47871 26-477): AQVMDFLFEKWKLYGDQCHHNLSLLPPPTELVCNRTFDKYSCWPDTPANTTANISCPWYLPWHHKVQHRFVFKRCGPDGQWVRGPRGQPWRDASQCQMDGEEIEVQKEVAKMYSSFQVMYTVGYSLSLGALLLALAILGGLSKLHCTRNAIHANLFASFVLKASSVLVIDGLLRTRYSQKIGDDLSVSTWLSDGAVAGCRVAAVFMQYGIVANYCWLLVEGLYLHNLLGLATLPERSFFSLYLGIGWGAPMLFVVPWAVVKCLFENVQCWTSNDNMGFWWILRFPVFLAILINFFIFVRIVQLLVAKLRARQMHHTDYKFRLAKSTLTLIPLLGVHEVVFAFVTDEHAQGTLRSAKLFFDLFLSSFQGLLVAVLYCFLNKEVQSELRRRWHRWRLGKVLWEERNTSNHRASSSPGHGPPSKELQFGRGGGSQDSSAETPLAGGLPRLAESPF

Row | Binder | hGLP-1R EC50 (pM) [1] [pM] | hGluc-R EC50 (pM) [2] [pM]
1 | B1 | 3.9 | 11.3
2 | B2 | 6.18 | 28.4
3 | B3 | 5.16 | 21.1
4 | B4 | 4.12 | 9.55
5 | B5 | 10.1 | 15.2
6 | B6 | 3.14 | 2.49
7 | B7 | 2.57 | 3.06
8 | B8 | 1230 | 2060
9 | B9 | 2.43 | 9.49
10 | B10 | 3.42 | 73.7
11 | B11 | 1.73 | 10.7
12 | B12 | 1.03 | 9.18
13 | B13 | 1.29 | 8.46
14 | B14 | 1.04 | 6.47
15 | B15 | 157 | 118
16 | B16 | 0.258 | 40.5
17 | B17 | 14.5 | 47.7
18 | B18 | 698 | > 26800
19 | B19 | 0.627 | 48.5
20 | B20 | 1.92 | 2.09
